B1: 15.0.c779 (antibody, V domains shown)
VH: EVQMVESGGGLVKPGGSLRLSCAASGFIFSNAWMSWVRQAPGKGLEWVGRIKGKTDGGTTDYAAPVKGRVTISRDDSKNTLFLQMNSLKTEDTAVYFCTADVLPAATRGVYYYYYYMDVWGKGTTVTVSS
VL: QSALTQPASVSGSPGQSITISCTGTSSDVGGYNYVSWYQQHPGKAPKLMIYDVSKRPSGVSNRFSGSKSGNTASLTISGLQAEDEADYYCCSYTGRSTVVFGGGTTLTVL
B2: 15.0.c780 (antibody, V domains shown)
VH: EVQLVESGGGLVKPGGSLRLSCAASGFTFSNAWMSWVRQAPGKGLEWVGRIKGKTDGGTTDYAAPVRGRFTISRDDSKNMLYLQMNSLKTEDTAIYYCTADVIPAATRGVYYYYYYMDVWGEGTTVAVSS
VL: QSALTQPASVSGSPGQSITISCTGTSSDVGGYNYVSWYQQHPGKAPKLMIYDVSKRPSGLSNRFSGSKSGNTASLTISGLQAEDEADYYCCSYARSSTVVFGGGTKVTVL
B3: 15.0.c846 (antibody, V domains shown)
VH: EVQLVESGGGLVQPGGSLRLSCAASGFTFSSYWMSWVRQAPGKGLEWVANIKQDGSEKYYVDSVKGRFTISRDNAKNSLYLQMNSLRAEDTAVYYCARTRDSSSSFYYYYYMDVWGKGTTVTVSS
VL: not shown
B4: 15.0.c792 (antibody, V domains shown)
VH: EVQLVESGGGLVQPGGSLRLSCAASGFTFSSYSMNWVRQAPGKGLEWVSYISSSSSTIYYADSVKGRFTISRDNAKNSLYLQMNSLRAEDTAVYYCARESPTYYDFWSGYSDYWGQGTLVTVSS
VL: NFMLTQPHSVSESPGKTVTISCTRSSGSIASNYVQWYQQRPGSSPTTVIYEDNQRPSGVPDRFSGSIDSSSNSASLTISGLKTEDEADYYCQSYDSSNRVFGGGTKLTVL
B5: 15.0.c942 (antibody, V domains shown)
VH: EVQLVESGGGVVRPGGSLRLTCAASGFIFENYGMSWVRQAPGKGLEWVSALNWNGVNTYYSDSVKGRFTISRDNAKNSLYLQMNSLSAEDTAFYYCAVHYYDSSGIYYLDDWGQGTLVTVSS
VL: QSVLTQPPSVSAAPGQKVSISCSGSSSNIGKNYVYWYQHVPGAAPKLLIYENDKRPSGIPDRFSGSKSGTSATLDITGLQTGDEAEYYCATWQSGLSAHVVFGGGTKLTVL
B6: 15.0.c778 (antibody, V domains shown)
VH: QVQLHESGPGVVKVSETLSLTCTLSGGSINGNSWSWIRQTAGKGLEWIGRVYTSGSPNYNPSLKSRLTMSIVTSKNQFSLTLRSVTAADTAIYYCARDFVVIDPTRVVDDYDAFDVWGRGTVVTVSS
VL: DIQLTQSPSILSASVGDRVTITCRASQSVSRYLAWYQQKPGNAPKLLIYKVSTLQSGVPSRFSGSASGTEFTLTINSLQPDDFATYYCHQYNGYLYTFGQGTKVDVK
B7: 9.1.c1410 (antibody, V domains shown)
VH: EVQLVESGGGLVKPGGSLRLSCAASGFTFSSYSMNWVRQAPGKGLEWVSSISSSSSYIYYADSVKGRFTISRDNAKNSLYLQMNSLRAEDTAVYYCARDLSEYQLLLSYFDYWGQGTLVTVSS
VL: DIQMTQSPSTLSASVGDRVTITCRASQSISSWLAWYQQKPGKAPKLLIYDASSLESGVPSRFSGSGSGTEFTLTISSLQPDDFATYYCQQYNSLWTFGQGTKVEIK
B8: 5.6.c3010 (antibody, V domains shown)
VH: EVQLVESGGGLVQPGGSLRLSCAASGLTVSSNYMNWVRQAPGKGLEWVSVIYSGGRTYYADSVKGRFTISRDISKNTVYLEMNSLRADDTAVYYCARIYFFYNGMDVWGQGTTVTVSP
VL: EILLTQSPGTLSLSPGERATLSCRASQSVSSNYLAWFQQKPGQAPRLLIYGASSRATGIPDRFSGSGSGTDFTLTISRLEPEDFALYYCQQYGSSPPWTFGQGTKVEMK
B9: 5.6.c3387 (antibody, V domains shown)
VH: QLQLQESGPRLVKPSETLSLTCTVSGGSINRNSYYWGWIRQPPGKGLEWIGTIYYSGSPYYNPSLKSRVTISVDTSKNQFSLKLDSVTAADTALYFCASLWGWNDVGWFDSWGQGTLVTVSS
VL: EIVLTQSPGTLSLSPGERATLSCRASQSVSSGYLAWYQQKPGQAPRLLIYGASIRAAGIPDRFSGSGSGTDFTLTISRLEPEDFAVYFCQQYGTSPLTFGPGTTVDIK
B10: 15.0.c835 (antibody, V domains shown)
VH: not shown
VL: DIQLTQSPSFLSASVGDRVTITCRASQGISSYLAWYQQKPGKAPKLLIYAASTLQSGVPSRFSGSGSGTEFTLTISSLQPEDFATYYCQQLNSYGYTFGQGTKLEIK
B11: 5.6.c2647 (antibody, V domains shown)
VH: QDQLVQSGAEVKKPGASVKVSCKASGYSFTGHYIHWVRRAPGRGLEWMGWINPDSGGTNYAQKFQGWVSMTRDTSISTAYMELSSLKSDDTAVYYCARGITMICDLWGQGTQVTVSS
VL: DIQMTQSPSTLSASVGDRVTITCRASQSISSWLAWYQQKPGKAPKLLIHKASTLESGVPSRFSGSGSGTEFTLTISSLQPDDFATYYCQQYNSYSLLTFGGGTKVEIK
B12: 15.0.c912 (antibody, V domains shown)
VH: QVQLQESGPGLVKPSQTLSLTCTVSGGSISSGGYYWNWVRQHPGKGLEWIGYISYSGSTFYSGSTYYNPSLKSRITISLDTSKNQFSLNLSSVTAADTAVYYCARDRGDPGGYYNYGMDVWGQGTTVTVSS
VL: QSVLTQPPSASGTPGQRVTISCSGSSSNIGSHYVYWYQQLSGTAPKLLIYRNNERPSGVPDRFSGSKSGTSASLAISGLRSEDEADYYCATWDDSQRVFGGGTKLTVL
B13: 15.0.c865 (antibody, V domains shown)
VH: EVQLVESGGSVVRPGGSLRLSCAASVFTFENYGMSWVRQTPGKGLEWVSSINWNGANTGYADSVKGRFTVSRDNAKNSLYLQMNSLRAEDTALYYCARHRYDSSGQWYFDYWGQGTLVTVSS
VL: SYELTQPPSVSVSPGQTARITCSGDALPKKYAYWYQQKPGQAPVLVIYEDSKRPSGIPERFSGSRSGTMATLTISGAQVADEADYYCYSPDSSGNHRIFGTGTKVTVL
B14: 15.0.c800 (antibody, V domains shown)
VH: EDQLLESGGGLVQPGGSLRLSCAVSGFTFSGYDLSWVRQAPGKGLEWVSIFSGSGGRKYYADSVKGRFTLSIDNSKNTLYLQMNSLRAEDTAVYYCAGDSSGYNNERMYYTYYMDVWGKGTTVTVSS
VL: DIQMTQSPSSVSASVGDRVIITCRASQGISSWLAWYQQKPGKAPKLLIYAASSLQSGVPSRFSGSGSGTDFTLTISSLQPEDFATYYCQQANSFPLSFGGGTKVEIK
B15: 15.0.c830 (antibody, V domains shown)
VH: EEQLLESGGGLVQPGGSLRLSCTVSGFTFSGYDMSWVRQAPGKGLEWVSLLSASGGGKYYADSVRGRFTISRDNSKNTMYLEMNSLRADDTAIYYCATDSSGYNYERLYYTYYMDVWGRGTTVSVSS
VL: DIQMTQSPSSVSASVGDRVTITCRASQGISVWLAWYQQKPGKAPKLLIHAASSLQSGVPSRFSGSGSGTDFSLTISSLQPEDFATYYCQQANSFPLTFGGGTKVEIK
B16: 15.0.c819 (antibody, V domains shown)
VH: QVQLVESGGGVVQPGRSLRLSCAASGFTFSSYAMHWVRQAPGKGLEWVAVISYDGSNKYYADSVKGRFTISRDNSKNTLYLQMNSLRAEDTAVYYCARDLLWFGELLFREYYMDVWGKGTTVTVSS
VL: not shown
B17: 9.1.c1426 (antibody, V domains shown)
VH: QVQLQESGPGLVKPSQTLSLTCTVSGGSISSGDYYWSWIRQPPGKGLEWIGYIYYSGSTYYNPSLKSRVTISVDTSKNQFSLKLSSVTAADTAVYYCARGYSSGWYLAYFQHWGQGTLVTVSS
VL: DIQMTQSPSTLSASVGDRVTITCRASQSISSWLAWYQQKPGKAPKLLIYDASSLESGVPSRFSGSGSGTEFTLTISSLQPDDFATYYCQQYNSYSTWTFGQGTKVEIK
B18: 5.6.c4172 (antibody, V domains shown)
VH: QVQLQESGPGLVKPSGTLSLTCAVSGGSISSHYWWSWVRQSPGKGLEWLGEIYQIGSTNYNPSLKSRVSMSVDESKNQFSLSLTSVTAADTAVYYCARDQGHWNPGKGAFDIWGQGALVTVSS
VL: QSVLTQPPSVSAAPGQRVTISCSGSNSNIGKNFVSWYQQFPGTAPKLLIYDNDKRPSGIPDRFSGSKSGTSATLGITGLQTGDEADYFCATWDTTLSAWVFGGGTKVTVL
B19: 5.6.c2902 (antibody, V domains shown)
VH: QVQLQESGPGLVKPSQTLSLTCTVSGASINSRDSYWSWIRQPPGKGLEWIGYIYYSGSTYSNPSLKSRVTMSVDTSKNQISLQLSSVTAADTAVYYCARVEGNEILFSLWYFDIWGRGTPVSVSS
VL: QSVLTQPPSVSAAPGQKVTISCSGSSSNIGNNYVSWYQQLPGTAPKLLIYDNNKRPSGIPDRFSGSKSGTSATLGITGLQTGDEADYYCGSWDSSLSAGHWVFGGGTKLTVL
B20: 5.6.c3169 (antibody, V domains shown)
VH: QVQLVQSGTEVKKPGASVRVSCKSSGYTFTNYGINWVRQAPGQGLEWLGWISTYNDNINYAQKFQGRVTMTTDTSTSTAYMELRSLRSDDTAIYYCAKDSSAYWDLLFYGMDVWGQGTTVTVSS
VL: DIQLTQSPSFVSASVGDRVTITCRASQGISSSLAWYQQKPGKAPNLLIYAASALQSGVPSRFSGSGSGTDFTLTISSLQPEDFATYFCQQLNSYPYTFGQGTKLEIK
B21: 5.6.c2617 (antibody, V domains shown)
VH: EVQLVESGGGLVQPGGSLRLSCVASGFTFSSYEMDWVRQAPGKGLEWVSYIGSSGSTIYYADSVKGRFTISRDNAKNSLYLQMNSLRAEDTAVYYCARDTETTGLYYYGMDVWGQGTTVTVSA
VL: DIQMTQSPSSVSASVGDRVTITCRASQGISRWLAWYQQKPGKAPKLLIYGTSSLQSGVPSRFSGSGSGTDFTLTISSLQPEDFATYYCQQANSFPFTFGPGTRVDIK
B22: 5.6.c2875 (antibody, V domains shown)
VH: EVQLVESGGGVVQPGGSLRLSCAASGFTLRNFDMHWVRQVTGKGLEWVSGIGTAGDTYYPDSVKGRFTISRENAKNSLYLQMNSLRAEDTAVYYCARARWLQFDNWGQGALVTVSS
VL: EIVLTQSPGTLSLSPGERATLSCKASQRVTSNFLAWYQQTPGQAPRLLIYSASSRATGIPDRFSGSGSGTDFTLTISRLEPEDFAVYYCQQYRSSRYTFGQGTKLEIK
B23: 5.6.c3242 (antibody, V domains shown)
VH: QVQLQESGPGLVKPSATLSLTCTVSGGSISSDHWSWIRQPPGKGLEWIGHVIYSGSTNYIPSLKSRVTISIDTSKNQFSLKLRSVTAADTAVYYCARGGGWYDNWFDPWGQGTLVTVSS
VL: QSALTQPASVSGSPGQSIIISCTGTSNDVGSYNLVSWYQQHPGKAPKLMIYEGNKRPSGVSNRFSGSKSGNAASLKISGLQSEDEAEYYCCSYAGSGTWVFGGGTKLTVL

Biological target: T1, thermolysin-cleaved EBOV GP on Jurkat-GP cells (cleaved GP) (Zaire ebolavirus, Makona (GP1 core …, strain))
T1 chain 1: not shown
T1 chain 2: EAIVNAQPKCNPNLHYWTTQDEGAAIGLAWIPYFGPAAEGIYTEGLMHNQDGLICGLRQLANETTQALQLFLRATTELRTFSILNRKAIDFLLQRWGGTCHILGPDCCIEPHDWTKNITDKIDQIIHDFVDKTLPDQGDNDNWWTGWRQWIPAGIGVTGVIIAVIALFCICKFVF

Binder	binding result
B1	binds
B2	binds
B3	binds
B4	binds
B5	binds
B6	binds
B7	binds
B8	binds
B9	binds
B10	binds
B11	binds
B12	binds
B13	binds
B14	binds
B15	binds
B16	binds
B17	binds
B18	binds

Biological target: EBOV GP ectodomain residues 1-636 (GPec) (Zaire ebolavirus, strain  …, UniProt Q05320)

Binder	binding result
B19	binds
B20	binds
B21	binds
B22	binds
B23	binds
